Results taken from patent US10562947B2, “Compositions and methods for preventing or treating diseases, conditions or processes characterized by aberrant fibroblast proliferation and extracellular matrix deposition” (MOERAE MATRIX, INC., priority 2011, dated 2020).

Columns and labels:
Assay in all cases: Kinase Profiling Assay
Type in all cases: biochemical
Settings in all cases: 100 μM peptide
[1] = target: T1, ALK4(h) (Homo sapiens, UniProt P36896)
T1 sequence (P36896 24-505): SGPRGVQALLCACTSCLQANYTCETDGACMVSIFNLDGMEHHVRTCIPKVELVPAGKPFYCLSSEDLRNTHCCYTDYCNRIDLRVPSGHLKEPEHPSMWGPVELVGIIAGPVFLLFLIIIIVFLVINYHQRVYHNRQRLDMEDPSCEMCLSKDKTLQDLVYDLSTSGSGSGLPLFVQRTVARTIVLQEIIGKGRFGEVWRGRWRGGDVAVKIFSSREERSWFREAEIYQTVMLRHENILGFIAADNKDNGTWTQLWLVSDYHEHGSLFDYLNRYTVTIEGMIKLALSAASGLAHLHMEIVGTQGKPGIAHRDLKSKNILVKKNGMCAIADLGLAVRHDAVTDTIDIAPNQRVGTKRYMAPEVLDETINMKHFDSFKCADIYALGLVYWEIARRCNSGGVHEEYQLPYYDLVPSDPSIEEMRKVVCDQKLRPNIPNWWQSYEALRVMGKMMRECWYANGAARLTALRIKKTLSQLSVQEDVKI
Method in brief: (§1)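 In duplicate, the activities of 266 available human kinases were determined with MK2 inhibitory peptides present, as a measure of peptide selectivity.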

[2] = target: Fer(h) (Homo sapiens, UniProt P16591)
Method in brief: as §1

[3] = target: PDGFRβ(h) (Homo sapiens, UniProt P09619)
Method in brief: as §1

[4] = target: T2, TAO2(h) (Homo sapiens, UniProt Q9UL54)
T2 sequence (Q9UL54 1-1235): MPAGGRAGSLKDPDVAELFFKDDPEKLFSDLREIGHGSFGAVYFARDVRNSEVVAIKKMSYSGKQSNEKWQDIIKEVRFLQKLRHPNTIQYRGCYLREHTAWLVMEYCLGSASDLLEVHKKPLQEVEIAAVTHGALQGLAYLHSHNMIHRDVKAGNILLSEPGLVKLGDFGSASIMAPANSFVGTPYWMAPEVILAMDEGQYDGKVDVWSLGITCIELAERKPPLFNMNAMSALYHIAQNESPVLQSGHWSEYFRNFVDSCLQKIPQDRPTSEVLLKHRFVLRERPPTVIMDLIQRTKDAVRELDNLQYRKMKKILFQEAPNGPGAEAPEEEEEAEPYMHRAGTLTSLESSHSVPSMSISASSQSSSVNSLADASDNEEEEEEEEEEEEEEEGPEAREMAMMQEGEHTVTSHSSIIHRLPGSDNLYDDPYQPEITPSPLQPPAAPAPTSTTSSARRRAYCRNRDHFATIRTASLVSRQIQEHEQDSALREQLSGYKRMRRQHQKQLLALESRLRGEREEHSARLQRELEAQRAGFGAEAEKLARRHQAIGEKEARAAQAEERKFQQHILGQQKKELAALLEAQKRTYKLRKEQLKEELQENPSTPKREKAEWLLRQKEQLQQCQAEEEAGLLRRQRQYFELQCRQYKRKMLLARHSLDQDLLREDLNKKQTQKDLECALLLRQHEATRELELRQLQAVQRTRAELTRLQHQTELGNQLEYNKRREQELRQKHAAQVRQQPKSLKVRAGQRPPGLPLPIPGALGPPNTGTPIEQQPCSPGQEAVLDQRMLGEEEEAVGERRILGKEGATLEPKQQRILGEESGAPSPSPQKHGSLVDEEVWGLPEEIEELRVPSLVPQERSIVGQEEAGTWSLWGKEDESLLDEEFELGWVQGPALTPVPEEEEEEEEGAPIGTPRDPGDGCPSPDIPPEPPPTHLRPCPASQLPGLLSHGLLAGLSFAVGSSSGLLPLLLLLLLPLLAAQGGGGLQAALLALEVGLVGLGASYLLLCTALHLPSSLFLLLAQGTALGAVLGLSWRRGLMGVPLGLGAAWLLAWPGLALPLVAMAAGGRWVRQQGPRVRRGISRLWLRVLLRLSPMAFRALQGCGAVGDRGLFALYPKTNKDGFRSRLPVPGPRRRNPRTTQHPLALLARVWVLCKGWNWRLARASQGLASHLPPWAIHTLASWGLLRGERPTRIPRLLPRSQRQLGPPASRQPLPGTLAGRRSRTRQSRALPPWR
Method in brief: as §1

[5] = target: BTK(R28H)(h) (Homo sapiens, UniProt Q06187, R28H)
Method in brief: as §1

[6] = target: CDK3/cyclinE(h) (Homo sapiens, UniProt Q00526)
Method in brief: as §1

[7] = target: CHK2(h) (Homo sapiens, UniProt O96017)
Method in brief: as §1

[8] = target: T3, SGK(h) (Homo sapiens, UniProt O00141)
T3 sequence (O00141 1-431): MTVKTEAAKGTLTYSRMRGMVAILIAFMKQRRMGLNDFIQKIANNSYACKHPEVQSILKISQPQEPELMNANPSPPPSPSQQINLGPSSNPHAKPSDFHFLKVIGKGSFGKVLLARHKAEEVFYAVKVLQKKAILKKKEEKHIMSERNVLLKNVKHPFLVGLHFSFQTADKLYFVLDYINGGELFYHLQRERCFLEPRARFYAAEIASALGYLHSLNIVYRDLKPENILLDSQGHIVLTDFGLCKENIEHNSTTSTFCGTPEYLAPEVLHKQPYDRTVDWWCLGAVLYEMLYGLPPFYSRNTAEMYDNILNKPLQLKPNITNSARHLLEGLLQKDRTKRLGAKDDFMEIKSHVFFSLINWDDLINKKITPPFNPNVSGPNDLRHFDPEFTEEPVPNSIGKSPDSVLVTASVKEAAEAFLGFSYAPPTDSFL
Method in brief: as §1

Sequence of BTK(R28H)(h) (Q06187 whole entry R28H): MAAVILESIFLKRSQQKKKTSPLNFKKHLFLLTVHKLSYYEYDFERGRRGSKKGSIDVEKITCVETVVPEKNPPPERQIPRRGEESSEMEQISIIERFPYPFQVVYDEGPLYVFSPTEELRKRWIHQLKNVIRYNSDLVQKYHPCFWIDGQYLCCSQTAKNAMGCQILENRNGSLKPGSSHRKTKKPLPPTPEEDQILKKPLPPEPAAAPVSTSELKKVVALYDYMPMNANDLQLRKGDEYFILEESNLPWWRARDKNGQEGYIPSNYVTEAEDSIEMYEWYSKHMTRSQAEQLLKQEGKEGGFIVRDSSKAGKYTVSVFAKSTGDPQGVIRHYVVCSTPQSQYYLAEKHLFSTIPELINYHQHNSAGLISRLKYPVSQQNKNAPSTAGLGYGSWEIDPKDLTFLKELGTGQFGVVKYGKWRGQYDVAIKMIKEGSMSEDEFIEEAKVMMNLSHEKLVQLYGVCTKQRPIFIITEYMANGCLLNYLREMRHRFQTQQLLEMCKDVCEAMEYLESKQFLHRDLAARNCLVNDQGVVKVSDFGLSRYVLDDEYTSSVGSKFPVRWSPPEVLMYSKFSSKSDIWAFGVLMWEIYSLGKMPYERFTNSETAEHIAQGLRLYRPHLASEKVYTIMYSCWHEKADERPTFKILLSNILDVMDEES
Sequence of PDGFRβ(h) (P09619 33-1106): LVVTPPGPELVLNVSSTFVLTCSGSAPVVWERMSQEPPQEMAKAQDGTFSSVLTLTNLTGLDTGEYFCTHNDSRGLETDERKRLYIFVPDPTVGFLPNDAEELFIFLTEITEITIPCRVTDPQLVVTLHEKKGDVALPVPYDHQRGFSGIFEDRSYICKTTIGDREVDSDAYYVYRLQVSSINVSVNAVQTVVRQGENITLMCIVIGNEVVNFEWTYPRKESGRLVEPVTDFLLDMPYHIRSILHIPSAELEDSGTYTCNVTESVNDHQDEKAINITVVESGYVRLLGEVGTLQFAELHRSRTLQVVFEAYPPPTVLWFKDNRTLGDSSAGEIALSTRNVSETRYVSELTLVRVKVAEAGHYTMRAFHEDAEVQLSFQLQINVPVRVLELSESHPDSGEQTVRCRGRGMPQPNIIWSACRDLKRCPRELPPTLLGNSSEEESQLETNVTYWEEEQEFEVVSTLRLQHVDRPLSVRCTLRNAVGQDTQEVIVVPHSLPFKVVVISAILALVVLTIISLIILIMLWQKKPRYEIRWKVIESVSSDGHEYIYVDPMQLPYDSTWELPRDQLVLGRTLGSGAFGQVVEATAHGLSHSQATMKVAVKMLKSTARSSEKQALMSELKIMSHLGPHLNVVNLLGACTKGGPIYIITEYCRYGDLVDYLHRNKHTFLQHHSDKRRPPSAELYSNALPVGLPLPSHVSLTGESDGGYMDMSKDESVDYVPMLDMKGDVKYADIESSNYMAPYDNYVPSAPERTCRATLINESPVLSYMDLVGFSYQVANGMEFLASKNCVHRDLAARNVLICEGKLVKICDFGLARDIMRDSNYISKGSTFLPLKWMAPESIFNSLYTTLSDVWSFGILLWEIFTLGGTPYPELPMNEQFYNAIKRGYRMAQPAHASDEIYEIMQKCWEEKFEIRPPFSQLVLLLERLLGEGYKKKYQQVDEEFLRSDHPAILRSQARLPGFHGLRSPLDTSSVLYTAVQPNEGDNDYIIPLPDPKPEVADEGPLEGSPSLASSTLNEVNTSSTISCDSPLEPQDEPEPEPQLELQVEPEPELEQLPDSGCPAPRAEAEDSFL
Sequence of CHK2(h) (O96017 whole entry): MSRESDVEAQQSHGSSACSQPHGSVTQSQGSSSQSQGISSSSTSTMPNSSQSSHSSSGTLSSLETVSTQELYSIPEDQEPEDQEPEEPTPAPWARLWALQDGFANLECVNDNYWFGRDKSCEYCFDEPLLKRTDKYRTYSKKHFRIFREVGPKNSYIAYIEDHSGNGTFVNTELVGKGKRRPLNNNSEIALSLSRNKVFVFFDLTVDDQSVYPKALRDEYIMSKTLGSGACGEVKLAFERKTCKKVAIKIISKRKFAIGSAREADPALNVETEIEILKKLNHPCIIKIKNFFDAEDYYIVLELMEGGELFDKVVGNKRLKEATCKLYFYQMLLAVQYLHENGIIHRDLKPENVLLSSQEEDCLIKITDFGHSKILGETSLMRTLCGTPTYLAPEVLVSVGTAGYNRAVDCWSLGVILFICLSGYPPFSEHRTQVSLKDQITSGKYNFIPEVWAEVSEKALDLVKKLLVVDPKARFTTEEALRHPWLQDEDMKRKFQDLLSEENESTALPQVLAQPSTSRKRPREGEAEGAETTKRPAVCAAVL
Sequence of Fer(h) (P16591 whole entry): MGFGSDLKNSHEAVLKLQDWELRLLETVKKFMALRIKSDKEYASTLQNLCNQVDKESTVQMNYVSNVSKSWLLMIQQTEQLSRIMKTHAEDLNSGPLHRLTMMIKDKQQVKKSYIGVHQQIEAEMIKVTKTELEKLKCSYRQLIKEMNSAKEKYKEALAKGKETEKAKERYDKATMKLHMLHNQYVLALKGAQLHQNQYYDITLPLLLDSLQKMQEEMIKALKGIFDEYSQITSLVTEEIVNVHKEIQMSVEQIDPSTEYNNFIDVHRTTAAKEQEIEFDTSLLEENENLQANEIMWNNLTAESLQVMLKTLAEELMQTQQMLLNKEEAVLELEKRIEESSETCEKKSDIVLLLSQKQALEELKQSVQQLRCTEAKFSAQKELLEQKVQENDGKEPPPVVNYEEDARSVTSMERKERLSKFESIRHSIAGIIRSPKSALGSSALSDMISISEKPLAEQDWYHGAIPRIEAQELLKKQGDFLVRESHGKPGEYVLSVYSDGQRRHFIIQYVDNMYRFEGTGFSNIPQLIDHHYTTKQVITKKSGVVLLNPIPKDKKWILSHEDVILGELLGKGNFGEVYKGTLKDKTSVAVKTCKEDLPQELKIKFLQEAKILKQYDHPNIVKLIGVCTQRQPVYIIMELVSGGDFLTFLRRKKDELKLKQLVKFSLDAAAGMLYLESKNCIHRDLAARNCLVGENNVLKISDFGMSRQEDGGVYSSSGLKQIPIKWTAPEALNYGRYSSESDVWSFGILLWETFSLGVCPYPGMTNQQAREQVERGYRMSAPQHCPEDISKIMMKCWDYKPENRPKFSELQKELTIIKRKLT
Sequence of CDK3/cyclinE(h) (Q00526 whole entry): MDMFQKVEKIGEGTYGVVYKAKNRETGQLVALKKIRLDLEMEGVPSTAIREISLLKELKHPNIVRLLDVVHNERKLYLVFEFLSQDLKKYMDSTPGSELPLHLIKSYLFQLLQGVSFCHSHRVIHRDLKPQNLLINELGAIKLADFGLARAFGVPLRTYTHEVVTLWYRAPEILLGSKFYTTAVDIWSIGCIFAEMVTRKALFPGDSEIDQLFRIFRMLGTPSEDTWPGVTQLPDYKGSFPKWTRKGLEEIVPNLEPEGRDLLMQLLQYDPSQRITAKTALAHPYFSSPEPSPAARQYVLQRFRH
Sequence of CDK3/cyclinE(h) (P24864 whole entry partner): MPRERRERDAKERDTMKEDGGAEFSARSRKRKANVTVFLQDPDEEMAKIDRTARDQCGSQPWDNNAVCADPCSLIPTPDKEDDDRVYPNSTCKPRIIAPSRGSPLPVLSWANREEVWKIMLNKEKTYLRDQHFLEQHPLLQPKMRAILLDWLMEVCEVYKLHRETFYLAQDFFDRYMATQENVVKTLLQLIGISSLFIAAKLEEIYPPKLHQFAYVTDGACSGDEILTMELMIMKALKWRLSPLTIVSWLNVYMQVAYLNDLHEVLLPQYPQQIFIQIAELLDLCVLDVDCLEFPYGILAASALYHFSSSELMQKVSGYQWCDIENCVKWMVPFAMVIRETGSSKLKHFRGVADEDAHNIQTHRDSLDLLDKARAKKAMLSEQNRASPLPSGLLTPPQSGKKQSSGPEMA

Sequence | ALK4(h) % activity [1] [%] | Fer(h) % activity [2] [%] | PDGFRβ(h) % activity [3] [%] | TAO2(h) % activity [4] [%] | BTK(R28H)(h) % activity [5] [%] | CDK3/cyclinE(h) % activity [6] [%] | CHK2(h) % activity [7] [%] | SGK(h) % activity [8] [%]
YARAAARQARAKALNRQLGVA (Mammalian) [MMI-0200] | 152 | 101 | 137 | 93 |  |  |  | 
HRRIKAWLKKIKALARQLGVAA (Mammalian) [MMI-0500] | 81 | 196 | 40 | 15 | 10 | 8 | 13 | 2
KAFAKLAARLYRKALARQLGVAA [MMI-0400] | 130 | 108 | 53 | 74 | 24 | 92 | 54 | 54
FAKLAARLYRKALARQLGVAA [MMI-0300] | 140 | 130 | 81 | 70 | 74 | 94 | 66 | 48
